Assay results reported in IntAct's records for PubMed 36753016.

Molecular target: ubp18_human USP18 (UniProt Q9UMW8)
Sequence (Q9UMW8 whole entry): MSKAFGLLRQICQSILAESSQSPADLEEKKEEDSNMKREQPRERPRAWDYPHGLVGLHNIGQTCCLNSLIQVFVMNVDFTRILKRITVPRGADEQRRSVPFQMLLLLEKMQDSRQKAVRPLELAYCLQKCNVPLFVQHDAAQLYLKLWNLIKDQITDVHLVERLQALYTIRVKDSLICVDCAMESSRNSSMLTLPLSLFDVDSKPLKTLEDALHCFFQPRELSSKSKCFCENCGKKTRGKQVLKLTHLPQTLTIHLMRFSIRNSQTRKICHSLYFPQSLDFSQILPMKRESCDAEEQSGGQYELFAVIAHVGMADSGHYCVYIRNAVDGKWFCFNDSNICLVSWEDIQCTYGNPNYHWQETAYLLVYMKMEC

Signal transducer and activator of transcription 2 (Homo sapiens), P52630 A219V
effect of a mutation on the interaction: decreasing interaction strength
